The values below come from patent US20120219567A1 (Biogen, published 2012).

Numbering of substitutions follows the chain as printed.

T1: human NgR mutant 163 (mutated to alanine) (human, UniProt Q9BZR6 27-445)
T1 sequence: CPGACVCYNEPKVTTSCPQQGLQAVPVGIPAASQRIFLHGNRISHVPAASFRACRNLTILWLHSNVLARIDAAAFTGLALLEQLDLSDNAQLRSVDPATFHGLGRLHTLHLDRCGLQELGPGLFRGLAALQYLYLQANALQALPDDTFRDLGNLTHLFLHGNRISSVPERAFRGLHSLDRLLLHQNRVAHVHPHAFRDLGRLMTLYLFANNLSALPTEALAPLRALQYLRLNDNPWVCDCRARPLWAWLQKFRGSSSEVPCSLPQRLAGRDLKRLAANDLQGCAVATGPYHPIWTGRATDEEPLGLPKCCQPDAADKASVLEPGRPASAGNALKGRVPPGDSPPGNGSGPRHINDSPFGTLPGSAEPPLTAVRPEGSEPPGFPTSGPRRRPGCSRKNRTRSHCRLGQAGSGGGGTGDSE

B1: AP-Nogo-66 (ligand, UniProt Q9NQC3 1055-1120, looked up)
chain: RIYKGVIQAIQKSDEGHPFRAYLESEVAISEELVQKYSNSALGHVNCTIKELRRLFLVDDLVDSLK
notes: domain: Nogo-66; also called AP-Ng-66; Nogo-66 ligand; not shown: alkaline phosphatase (AP) moiety
B2: human NgR mutant 67, 68, 71 (mutated to alanine) (receptor)
chain: T1 sequence with N41A, R42A, H45A, A137D
B3: human NgR mutant 67, 68, 71, 89, 90, 92 (mutated to alanine) (receptor)
chain: T1 sequence with N41A, R42A, H45A, H63A, S64A, V66A, A137D
B4: human NgR mutant 82, 179 (mutated to alanine) (receptor)
chain: T1 sequence with N56A, A137D, N153A
B5: human NgR mutant 87, 89, 133, 136 (mutated to alanine) (receptor)
chain: T1 sequence with W61A, H63A, H107A, H110A, A137D
B6: human NgR mutant 133, 136 (mutated to alanine) (receptor)
chain: T1 sequence with H107A, H110A, A137D

The target of assay [1] is T1, human NgR mutant 163 (mutated to …). Description: AP-ligand binding to transfected COS-7 cells. The procedure: (§1) In order to probe the NgR domains that interact with Aβ and Nogo-66, a strategy based on the crystal structure of NgR was employed. A number of human NgR surface-accessible residues were mutated to Ala either individually or as groups of adjacent residues (Table 3), and resultant ligand binding characteristics were assessed. The ligand concentrations were AP, 30 nM, AP-Nogo-66, 5 nM, AP-Aβ(1-28), 50 nM. NgR mutagenesis has been previously described. Hu et al., J Neurosci 25:5298-5304 (2005); Fournier et al., J Neurosci 23:1416-1423 (2003). The expression of each mutant NgR protein was verified by immunohistochemical detection at the surface of cells transfected with expression vector (FIG. 2a). Bound AP was stained and measured using NIH image software. Mutants of human NgR were detected on the surface of transfected COS-7 immunofluorescently. For each of the mutants with altered binding characteristics, expression of immunoreactive NgR protein with electrophoretic mobility similar to wild type was also confirmed by immunoblot (FIG. 2c). Whole COS-7 cell lysates expressing NgR mutants were subjected to SDS-PAGE and blotted with anti-NgR antibodies. The mobility of each mutant was indistinguishable from wild type NgR, except for the mutations in N-linked glycosylation sites (N82 and N179). The binding of both AP-Aβ(1-28) and AP-Nogo-66 ligands to cells expressing this collection of NgR mutant proteins was assessed at concentrations equal to the predetermined Kd's of the ligands (FIG. 2b, d).

In the assay “AP-Nogo-66” the target is B1. Briefly: AP-ligand binding to transfected COS-7 cells. As to the method:
as §1

Consider B1, for which the binding result in assay [1] is “no binding (tested: 5 nM)”.
Take B2: in the assay with AP-Nogo-66, the binding result was “no binding (tested: 5 nM)”.
The same measure, in the same setting: to B3 belongs “no binding (tested: 5 nM)”; to B4, “no binding (tested: 5 nM)”; to B5, “no binding (tested: 5 nM)”.
Same read-out and setting: to B6 belongs “no binding (tested: 5 nM)”.
